Like-named read-outs stand apart in the source and are kept apart here.
Assay: Biodistribution, paired DX3puroβ6/DX3puro xenograft tumor mouse model
Format: in vivo, mice
Settings: female, athymic nude, iv, total radioactivity, γ-counter, mean ± SD; for tissue uptake at 4 h / tissue uptake at 24 h / tissue uptake at 48 h: i.v.
Description: The biodistribution of [^64Cu]PDC-1 confirmed the αvβ6-selective tumor accumulation, with 4.46 ± 0.91% ID/g in the DX3puroβ6 (+) tumor at 4 h vs 0.56 ± 0.12% ID/g in the DX3puro (−) tumor (ratio = 8:1; Figure 6A, Table S3). […] For the BxPC-3 tumor, the uptake went from 4.61 ± 1.44% ID/g at 4 h to 3.73 ± 0.44 and 2.93 ± 0.80% ID/g, at 24 and 48 h, respectively (4 to 48 h: P = 0.054; Figure 6). […] Clearance from the blood was rapid, resulting in αvβ6 (+) tumor/blood ratios of ≥32:1 at 4 h (Table S5). [^64Cu]PDC-1 primarily cleared through the kidneys, from 50 to 64% ID/g at 4 h to ≤25% ID/g at 48 h (Figure 6). […] Accumulation in the liver remained steady between 1.5 and 2.2% ID/g at 4 to 48 h, and uptake in other organs such as muscle (≤0.9% ID/g) and pancreas (≤0.5% ID/g) was low at all time points (Figure 6).
All animal procedures conformed to the Animal Welfare Act and were approved by the University of California Davis Institutional Animal Care and Use Committee. All mice used for in vivo work were female athymic nude mice (6–8 weeks old) purchased from Charles River Laboratories (Wilmington, MA). For PET imaging and biodistribution studies, female athymic nude mice (6–8 weeks old) were injected subcutaneously with 3 × 10^6 DX3puro and 3 × 10^6 DX3puroβ6 cells in serum free DMEM on the right and left flank, respectively, or with 5 × 10^6 BxPC-3 cells in serum free RPMI 1640/Matrigel (1/1 v/v). Studies commenced once tumors reached a maximum diameter of ∼0.5 cm, approximately 3 weeks after inoculation. Food and water were available ad libitum. [^64Cu]PDC-1 was formulated in isotonic 0.9% saline to pH = 7.2 and administered intravenously (i.v.) via a catheter into the tail vein.
Aliquots of the formulated [^64Cu]PDC-1 in isotonic 0.9% saline (4.81–5.74 MBq, 1.7–2.1 μg, 0.26–0.31 nmol, 100 μL, pH 7.2) were injected i.v. as described above. Following the conscious uptake period, the mice were anesthetized (5% isoflurane), euthanized, and dissected (n ≥ 3/model/time point [4, 24, and 48 h]; the 48 h time point also included the imaging animals sacrificed after the PET scans). Tissues were collected, washed, weighed, and radioactivity measured in a γ-counter. Calibrated, decay-corrected radioactivity was expressed as the percentage of injected dose per gram of tissue (% ID/g). Data are reported as mean ± SD. The mean weights and standard deviation of the DX3puroβ6/DX3puro paired tumor model biodistribution mice were 24.3 ± 1.4 g at 4 h, 28.2 ± 2.9 g at 24 h, and 27.7 ± 2.6 g at 48 h. The mean weights and standard deviation of the BxPC-3 tumor model biodistribution mice were 25.1 ± 1.9 g at 4 h, 27.0 ± 1.1 g at 24 h and 27.1 ± 3.2 g at 48 h. For in vivo blocking studies, DOTA-2 (50 mg/kg, 205 nmol, 1.4 mg in 100 μL 0.9% saline) was injected i.v. into two animals/tumor model 10 min prior to [^64Cu]PDC-1. The animals were sacrificed after 4 h, tissues collected, washed, weighed, and radioactivity measured in a γ-counter. The mean weights and standard deviation for the blocking mice were 24.6 ± 0 and 27.9 ± 0.3 g for the DX3puroβ6/DX3puro paired and BxPC-3 tumor models, respectively.
Biodistribution data of [64Cu]PDC-1 in paired DX3puroβ6/DX3puro tumor model.
Table S3. Biodistribution of [ 64Cu]PDC-1 in mice bearing paired DX3puroβ6/DX3puro xenograft tumors.
Tissue uptake is expressed as the mean of the percentage of injected dose per gram of tissue ± standard
deviation (n = 4/ time point; n = 9 at 48 h); an = 3, bn = 8, cn = 7.

With CC[C@H](C)[C@@H]([C@@H](CC(=O)N1CCC[C@H]1[C@H](OC)[C@@H](C)C(=O)N[C@H](C)[C@@H](O)c1ccccc1)OC)N(C)C(=O)[C@@H](NC(=O)[C@H](C(C)C)N(C)C(=O)OCc1ccc(NC(=O)[C@H](CCCNC(N)=O)NC(=O)[C@@H](NC(=O)CCOCCOCCNC(=O)CCN2C(=O)CC(SC[C@H](NC(=O)CN3CCN(CC(=O)O)CCN(CC(=O)O)CCN(CC(=O)O)CC3)C(=O)NCCOCCOCCOCCOCCOCCOCCOCCOCCOCCOCCOCCOCCOCCOCCOCCOCCOCCOCCOCCOCCOCCOCCOCCOCCOCCOCCOCCOCCC(=O)N[C@@H](CC(N)=O)C(=O)N[C@@H](C)C(=O)N[C@H](C(=O)N3CCC[C@H]3C(=O)N[C@@H](CC(N)=O)C(=O)N[C@@H](CC(C)C)C(=O)N[C@@H](CCCNC(=N)N)C(=O)NCC(=O)N[C@@H](CC(=O)O)C(=O)N[C@@H](CC(C)C)C(=O)N[C@@H](CCC(N)=O)C(=O)N[C@H](C(=O)N[C@@H](CC(C)C)C(=O)N[C@@H](C)C(=O)N[C@@H](CCC(N)=O)C(=O)N[C@@H](CCCNC(=N)N)C(=O)N[C@H](C(=O)N[C@@H](C)C(=O)N[C@@H](CCCNC(=N)N)C(=O)N[C@H](C(=O)NCCOCCOCCOCCOCCOCCOCCOCCOCCOCCOCCOCCOCCOCCOCCOCCOCCOCCOCCOCCOCCOCCOCCOCCOCCOCCOCCOCCOCCC(N)=O)[C@@H](C)O)C(C)C)C(C)C)C(C)C)C2=O)C(C)C)cc1)C(C)C (stereo partly drawn) [[^64Cu]PDC-1, metal not drawn] the tissue uptake at 4 h (DX3puro (αvβ6 −) tumor, 4 h p.i., n = 4, read-out: DX3puro (αvβ6 −) tumor uptake) was 0.56 ± 0.12 %ID/g, the tissue uptake at 24 h (DX3puro (αvβ6 −) tumor, 24 h p.i., n = 3, read-out: DX3puro (αvβ6 −) tumor uptake) was 1.03 ± 0.12 %ID/g and the tissue uptake at 48 h (DX3puro (αvβ6 −) tumor, 48 h p.i., n = 8, read-out: DX3puro (αvβ6 −) tumor uptake) was 0.74 ± 0.2 %ID/g. The tissue uptake at 4 h (DX3puroβ6 (αvβ6 +) tumor, 4 h p.i., n = 4, read-out: DX3puroβ6 (αvβ6 +) tumor uptake) was 4.46 ± 0.91 %ID/g, the tissue uptake at 24 h (DX3puroβ6 (αvβ6 +) tumor, 24 h p.i., n = 4, read-out: DX3puroβ6 (αvβ6 +) tumor uptake) was 3.39 ± 0.56 %ID/g and the tissue uptake at 48 h (DX3puroβ6 (αvβ6 +) tumor, 48 h p.i., n = 9, read-out: DX3puroβ6 (αvβ6 +) tumor uptake) was 2.53 ± 0.37 %ID/g. It also gave a tissue uptake at 4 h (bladder, 4 h p.i., n = 4, read-out: Bladder uptake) of 2.12 ± 0.62 %ID/g, a tissue uptake at 24 h (bladder, 24 h p.i., n = 4, read-out: Bladder uptake) of 1.65 ± 0.44 %ID/g and a tissue uptake at 48 h (bladder, 48 h p.i., n = 9, read-out: Bladder uptake) of 1.66 ± 0.28 %ID/g. For the same molecule, the tissue uptake at 4 h (blood, 4 h p.i., n = 4, read-out: Blood uptake) was 0.14 ± 0.02 %ID/g, the tissue uptake at 24 h (blood, 24 h p.i., n = 4, read-out: Blood uptake) was 0.29 ± 0.03 %ID/g and the tissue uptake at 48 h (blood, 48 h p.i., n = 9, read-out: Blood uptake) was 0.34 ± 0.09 %ID/g. For the same molecule, the tissue uptake at 4 h (bone, 4 h p.i., n = 4, read-out: Bone uptake) was 0.43 ± 0.18 %ID/g, the tissue uptake at 24 h (bone, 24 h p.i., n = 4, read-out: Bone uptake) was 0.38 ± 0.08 %ID/g and the tissue uptake at 48 h (bone, 48 h p.i., n = 9, read-out: Bone uptake) was 0.33 ± 0.1 %ID/g. For the same molecule, the tissue uptake at 4 h (brain, 4 h p.i., n = 4, read-out: Brain uptake) was 0.04 ± 0.01 %ID/g, the tissue uptake at 24 h (brain, 24 h p.i., n = 4, read-out: Brain uptake) was 0.07 ± 0.01 %ID/g and the tissue uptake at 48 h (brain, 48 h p.i., n = 9, read-out: Brain uptake) was 0.09 ± 0.03 %ID/g. The tissue uptake at 4 h (gall bladder, 4 h p.i., n = 4, read-out: Gall bladder uptake) was 3.64 ± 0.79 %ID/g, the tissue uptake at 24 h (gall bladder, 24 h p.i., n = 4, read-out: Gall bladder uptake) was 3.16 ± 0.49 %ID/g and the tissue uptake at 48 h (gall bladder, 48 h p.i., n = 9, read-out: Gall bladder uptake) was 1.42 ± 0.63 %ID/g. The tissue uptake at 4 h (heart, 4 h p.i., n = 4, read-out: Heart uptake) was 0.82 ± 0.17 %ID/g, the tissue uptake at 24 h (heart, 24 h p.i., n = 4, read-out: Heart uptake) was 0.84 ± 0.15 %ID/g and the tissue uptake at 48 h (heart, 48 h p.i., n = 9, read-out: Heart uptake) was 0.85 ± 0.18 %ID/g. The tissue uptake at 4 h (kidney, 4 h p.i., n = 4, read-out: Kidney uptake) was 63.9 ± 12.5 %ID/g, the tissue uptake at 24 h (kidney, 24 h p.i., n = 4, read-out: Kidney uptake) was 41.2 ± 4.47 %ID/g and the tissue uptake at 48 h (kidney, 48 h p.i., n = 9, read-out: Kidney uptake) was 22.9 ± 5.48 %ID/g. For the same molecule, the tissue uptake at 4 h (large intestines, 4 h p.i., n = 4, read-out: Lg. Intestines uptake) was 6.25 ± 0.74 %ID/g, the tissue uptake at 24 h (large intestines, 24 h p.i., n = 4, read-out: Lg. Intestines uptake) was 3.98 ± 0.83 %ID/g and the tissue uptake at 48 h (large intestines, 48 h p.i., n = 9, read-out: Lg. Intestines uptake) was 3.04 ± 0.73 %ID/g. The tissue uptake at 4 h (liver, 4 h p.i., n = 4, read-out: Liver uptake) was 1.34 ± 0.29 %ID/g, the tissue uptake at 24 h (liver, 24 h p.i., n = 4, read-out: Liver uptake) was 2.25 ± 0.59 %ID/g and the tissue uptake at 48 h (liver, 48 h p.i., n = 9, read-out: Liver uptake) was 2.15 ± 0.62 %ID/g. It also gave a tissue uptake at 4 h (lung, 4 h p.i., n = 4, read-out: Lung uptake) of 3.08 ± 0.78 %ID/g, a tissue uptake at 24 h (lung, 24 h p.i., n = 4, read-out: Lung uptake) of 2.19 ± 0.42 %ID/g and a tissue uptake at 48 h (lung, 48 h p.i., n = 9, read-out: Lung uptake) of 1.71 ± 0.44 %ID/g. It also gave a tissue uptake at 4 h (muscle, 4 h p.i., n = 4, read-out: Muscle uptake) of 0.89 ± 0.11 %ID/g, a tissue uptake at 24 h (muscle, 24 h p.i., n = 4, read-out: Muscle uptake) of 0.56 ± 0.07 %ID/g and a tissue uptake at 48 h (muscle, 48 h p.i., n = 9, read-out: Muscle uptake) of 0.48 ± 0.14 %ID/g. The tissue uptake at 4 h (pancreas, 4 h p.i., n = 4, read-out: Pancreas uptake) was 0.36 ± 0.07 %ID/g, the tissue uptake at 24 h (pancreas, 24 h p.i., n = 4, read-out: Pancreas uptake) was 0.45 ± 0.05 %ID/g and the tissue uptake at 48 h (pancreas, 48 h p.i., n = 9, read-out: Pancreas uptake) was 0.52 ± 0.25 %ID/g. The tissue uptake at 4 h (skin, 4 h p.i., n = 4, read-out: Skin uptake) was 1.96 ± 0.5 %ID/g, the tissue uptake at 24 h (skin, 24 h p.i., n = 4, read-out: Skin uptake) was 1.26 ± 0.36 %ID/g and the tissue uptake at 48 h (skin, 48 h p.i., n = 9, read-out: Skin uptake) was 1 ± 0.34 %ID/g. It also gave a tissue uptake at 4 h (small intestines, 4 h p.i., n = 4, read-out: Sm. Intestines uptake) of 4.67 ± 0.66 %ID/g, a tissue uptake at 24 h (small intestines, 24 h p.i., n = 4, read-out: Sm. Intestines uptake) of 2.73 ± 0.28 %ID/g and a tissue uptake at 48 h (small intestines, 48 h p.i., n = 9, read-out: Sm. Intestines uptake) of 1.53 ± 0.21 %ID/g. It also gave a tissue uptake at 4 h (spleen, 4 h p.i., n = 4, read-out: Spleen uptake) of 0.21 ± 0.08 %ID/g, a tissue uptake at 24 h (spleen, 24 h p.i., n = 4, read-out: Spleen uptake) of 0.58 ± 0.03 %ID/g and a tissue uptake at 48 h (spleen, 48 h p.i., n = 9, read-out: Spleen uptake) of 0.54 ± 0.12 %ID/g. For the same molecule, the tissue uptake at 4 h (stomach, 4 h p.i., n = 4, read-out: Stomach uptake) was 8.97 ± 0.76 %ID/g, the tissue uptake at 24 h (stomach, 24 h p.i., n = 4, read-out: Stomach uptake) was 4.86 ± 0.56 %ID/g and the tissue uptake at 48 h (stomach, 48 h p.i., n = 9, read-out: Stomach uptake) was 3 ± 0.56 %ID/g. For the same molecule, the excreta dose per gram or mL at 4 h (urine, 4 h p.i., n = 4) was 13 ± 2.4 %ID/g, the excreta dose per gram or mL at 24 h (urine, 24 h p.i., n = 4) was 4.57 ± 0.87 %ID/g and the excreta dose per gram or mL at 48 h (urine, 48 h p.i., n = 7) was 1.6 ± 0.47 %ID/g.
